Experimental data: patent US20140120128A1

Tests used:
Test in all cases: cell-based or functional assay
[1] = target: human TLR5 expressed on HEK293 cells (human) (UniProt O60602)
[2] = target: human TLR3 expressed on HEK293 cells (human) (UniProt O15455)
[3] = target: T1, human TLR9 expressed on HEK293 cells (human) (UniProt Q9NR96)
T1 sequence: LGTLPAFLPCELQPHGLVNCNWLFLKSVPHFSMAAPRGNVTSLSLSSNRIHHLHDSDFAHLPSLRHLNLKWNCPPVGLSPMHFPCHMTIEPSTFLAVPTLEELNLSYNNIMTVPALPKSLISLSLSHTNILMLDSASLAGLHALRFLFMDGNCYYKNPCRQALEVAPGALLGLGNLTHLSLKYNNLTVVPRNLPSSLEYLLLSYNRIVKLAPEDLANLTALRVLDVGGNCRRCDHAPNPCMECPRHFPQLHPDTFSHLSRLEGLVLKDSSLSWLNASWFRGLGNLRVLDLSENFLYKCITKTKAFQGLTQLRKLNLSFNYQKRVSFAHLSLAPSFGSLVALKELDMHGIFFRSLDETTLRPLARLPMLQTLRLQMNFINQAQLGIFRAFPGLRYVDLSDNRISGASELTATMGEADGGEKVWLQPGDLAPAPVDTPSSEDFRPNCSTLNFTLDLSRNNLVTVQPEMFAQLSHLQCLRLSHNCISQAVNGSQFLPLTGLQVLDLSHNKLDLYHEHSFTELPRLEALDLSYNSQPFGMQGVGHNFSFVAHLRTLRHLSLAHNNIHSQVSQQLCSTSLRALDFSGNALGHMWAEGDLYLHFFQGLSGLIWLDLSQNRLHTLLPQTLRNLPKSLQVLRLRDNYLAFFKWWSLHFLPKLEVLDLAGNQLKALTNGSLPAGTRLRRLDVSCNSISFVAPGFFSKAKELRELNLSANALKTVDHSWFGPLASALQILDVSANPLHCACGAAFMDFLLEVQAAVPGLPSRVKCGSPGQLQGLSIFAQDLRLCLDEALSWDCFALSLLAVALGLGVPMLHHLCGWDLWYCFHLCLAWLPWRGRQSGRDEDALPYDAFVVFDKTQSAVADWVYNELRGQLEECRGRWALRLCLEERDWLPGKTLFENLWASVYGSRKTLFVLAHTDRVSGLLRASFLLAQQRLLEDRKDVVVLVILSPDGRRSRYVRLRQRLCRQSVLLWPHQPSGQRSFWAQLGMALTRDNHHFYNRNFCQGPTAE

[4] = target: human TLR2 expressed on HEK293 cells (human) (UniProt O60603)
Chain of human TLR2 expressed on HEK293 cells (human) (O60603 21-784): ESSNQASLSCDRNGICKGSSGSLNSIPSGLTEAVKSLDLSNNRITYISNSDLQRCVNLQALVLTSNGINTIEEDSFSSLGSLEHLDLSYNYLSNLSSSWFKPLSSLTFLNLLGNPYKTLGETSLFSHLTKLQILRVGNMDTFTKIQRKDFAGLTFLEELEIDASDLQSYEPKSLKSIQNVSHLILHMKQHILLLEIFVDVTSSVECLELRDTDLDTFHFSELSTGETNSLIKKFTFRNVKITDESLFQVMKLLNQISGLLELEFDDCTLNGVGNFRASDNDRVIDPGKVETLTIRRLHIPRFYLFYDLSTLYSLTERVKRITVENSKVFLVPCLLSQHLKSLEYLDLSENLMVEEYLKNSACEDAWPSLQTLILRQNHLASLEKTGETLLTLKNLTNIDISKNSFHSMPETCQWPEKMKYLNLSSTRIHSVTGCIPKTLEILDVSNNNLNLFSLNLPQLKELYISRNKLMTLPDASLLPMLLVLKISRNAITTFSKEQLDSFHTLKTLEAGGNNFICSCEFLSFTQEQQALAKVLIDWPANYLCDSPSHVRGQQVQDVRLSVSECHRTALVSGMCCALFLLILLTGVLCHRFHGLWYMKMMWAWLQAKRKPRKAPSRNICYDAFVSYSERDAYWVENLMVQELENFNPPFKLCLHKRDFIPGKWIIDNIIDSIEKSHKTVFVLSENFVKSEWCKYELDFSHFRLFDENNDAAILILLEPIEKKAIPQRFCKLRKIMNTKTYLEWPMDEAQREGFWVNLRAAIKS

[5] = target: T2, human TLR8 expressed on HEK293 cells (human) (UniProt Q9NR97)
T2 sequence: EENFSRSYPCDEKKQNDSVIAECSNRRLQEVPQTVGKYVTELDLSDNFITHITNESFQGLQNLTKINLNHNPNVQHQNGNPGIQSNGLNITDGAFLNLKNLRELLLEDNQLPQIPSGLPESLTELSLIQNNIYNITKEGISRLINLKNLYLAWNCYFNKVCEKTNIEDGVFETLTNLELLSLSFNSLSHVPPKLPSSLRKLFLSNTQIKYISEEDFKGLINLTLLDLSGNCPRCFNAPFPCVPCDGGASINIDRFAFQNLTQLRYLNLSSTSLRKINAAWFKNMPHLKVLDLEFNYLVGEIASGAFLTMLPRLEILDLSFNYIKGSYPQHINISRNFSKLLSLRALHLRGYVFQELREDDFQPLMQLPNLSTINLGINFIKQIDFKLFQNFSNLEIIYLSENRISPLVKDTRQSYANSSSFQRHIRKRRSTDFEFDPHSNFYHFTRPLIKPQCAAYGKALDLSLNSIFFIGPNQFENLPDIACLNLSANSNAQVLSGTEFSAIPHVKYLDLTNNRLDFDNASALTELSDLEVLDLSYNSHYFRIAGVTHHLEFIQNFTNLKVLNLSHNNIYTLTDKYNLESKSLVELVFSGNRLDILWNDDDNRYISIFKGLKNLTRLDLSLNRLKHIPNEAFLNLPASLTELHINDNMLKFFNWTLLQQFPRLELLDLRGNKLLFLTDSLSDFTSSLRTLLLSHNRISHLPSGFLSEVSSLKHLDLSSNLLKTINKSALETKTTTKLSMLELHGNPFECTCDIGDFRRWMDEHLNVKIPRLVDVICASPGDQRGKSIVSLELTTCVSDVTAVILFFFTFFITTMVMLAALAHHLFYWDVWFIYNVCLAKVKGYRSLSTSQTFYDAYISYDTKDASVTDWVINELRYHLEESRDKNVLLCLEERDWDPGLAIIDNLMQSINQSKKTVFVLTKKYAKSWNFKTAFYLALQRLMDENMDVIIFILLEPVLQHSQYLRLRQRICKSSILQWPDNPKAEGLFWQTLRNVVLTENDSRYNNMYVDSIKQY

[6] = target: human TLR4 (MD2-CD14) expressed on HEK293 cells (human) (UniProt O00206)
Chain of human TLR4 (MD2-CD14) expressed on HEK293 cells (human) (O00206 24-839 limits assumed, chain 1 of 3): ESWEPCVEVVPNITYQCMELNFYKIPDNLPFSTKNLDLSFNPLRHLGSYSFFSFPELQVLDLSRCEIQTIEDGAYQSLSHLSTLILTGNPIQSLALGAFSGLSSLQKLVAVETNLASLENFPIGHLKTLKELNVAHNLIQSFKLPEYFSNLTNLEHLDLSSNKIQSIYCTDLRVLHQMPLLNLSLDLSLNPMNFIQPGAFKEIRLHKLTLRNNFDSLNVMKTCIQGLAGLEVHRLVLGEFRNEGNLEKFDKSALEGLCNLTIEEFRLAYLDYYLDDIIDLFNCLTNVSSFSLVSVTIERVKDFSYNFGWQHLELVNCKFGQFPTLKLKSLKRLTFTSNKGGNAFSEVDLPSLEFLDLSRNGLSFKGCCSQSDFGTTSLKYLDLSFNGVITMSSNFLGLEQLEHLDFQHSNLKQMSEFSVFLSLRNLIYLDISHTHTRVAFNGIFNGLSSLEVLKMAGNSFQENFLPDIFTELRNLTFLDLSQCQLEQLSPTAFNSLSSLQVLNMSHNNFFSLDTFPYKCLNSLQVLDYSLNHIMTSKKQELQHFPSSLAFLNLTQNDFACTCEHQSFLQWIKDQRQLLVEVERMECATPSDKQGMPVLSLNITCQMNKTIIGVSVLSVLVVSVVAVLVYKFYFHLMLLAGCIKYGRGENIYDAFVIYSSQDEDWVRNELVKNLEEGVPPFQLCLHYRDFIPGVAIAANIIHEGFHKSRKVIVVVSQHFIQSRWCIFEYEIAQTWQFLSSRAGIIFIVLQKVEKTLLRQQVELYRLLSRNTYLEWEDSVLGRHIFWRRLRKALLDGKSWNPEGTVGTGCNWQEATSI
Chain of human TLR4 (MD2-CD14) expressed on HEK293 cells (human) (Q9Y6Y9 19-160 limits assumed, chain 2 of 3, further chain): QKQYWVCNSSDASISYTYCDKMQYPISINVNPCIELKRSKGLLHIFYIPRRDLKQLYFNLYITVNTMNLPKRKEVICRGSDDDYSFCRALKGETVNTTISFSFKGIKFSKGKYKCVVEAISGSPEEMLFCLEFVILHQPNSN
Chain of human TLR4 (MD2-CD14) expressed on HEK293 cells (human) (P08571 20-345 limits assumed, chain 3 of 3, further chain): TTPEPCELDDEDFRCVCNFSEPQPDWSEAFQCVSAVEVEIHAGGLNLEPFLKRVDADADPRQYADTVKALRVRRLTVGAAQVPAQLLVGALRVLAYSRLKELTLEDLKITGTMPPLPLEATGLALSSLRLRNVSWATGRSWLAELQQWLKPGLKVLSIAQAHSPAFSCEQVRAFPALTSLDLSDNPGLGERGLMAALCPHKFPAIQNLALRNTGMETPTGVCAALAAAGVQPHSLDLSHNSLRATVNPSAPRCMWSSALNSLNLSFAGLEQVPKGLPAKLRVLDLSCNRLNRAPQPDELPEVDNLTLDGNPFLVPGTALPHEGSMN

[7] = target: T3, human TLR7 expressed on HEK293 cells (human) (UniProt Q9NYK1)
T3 sequence: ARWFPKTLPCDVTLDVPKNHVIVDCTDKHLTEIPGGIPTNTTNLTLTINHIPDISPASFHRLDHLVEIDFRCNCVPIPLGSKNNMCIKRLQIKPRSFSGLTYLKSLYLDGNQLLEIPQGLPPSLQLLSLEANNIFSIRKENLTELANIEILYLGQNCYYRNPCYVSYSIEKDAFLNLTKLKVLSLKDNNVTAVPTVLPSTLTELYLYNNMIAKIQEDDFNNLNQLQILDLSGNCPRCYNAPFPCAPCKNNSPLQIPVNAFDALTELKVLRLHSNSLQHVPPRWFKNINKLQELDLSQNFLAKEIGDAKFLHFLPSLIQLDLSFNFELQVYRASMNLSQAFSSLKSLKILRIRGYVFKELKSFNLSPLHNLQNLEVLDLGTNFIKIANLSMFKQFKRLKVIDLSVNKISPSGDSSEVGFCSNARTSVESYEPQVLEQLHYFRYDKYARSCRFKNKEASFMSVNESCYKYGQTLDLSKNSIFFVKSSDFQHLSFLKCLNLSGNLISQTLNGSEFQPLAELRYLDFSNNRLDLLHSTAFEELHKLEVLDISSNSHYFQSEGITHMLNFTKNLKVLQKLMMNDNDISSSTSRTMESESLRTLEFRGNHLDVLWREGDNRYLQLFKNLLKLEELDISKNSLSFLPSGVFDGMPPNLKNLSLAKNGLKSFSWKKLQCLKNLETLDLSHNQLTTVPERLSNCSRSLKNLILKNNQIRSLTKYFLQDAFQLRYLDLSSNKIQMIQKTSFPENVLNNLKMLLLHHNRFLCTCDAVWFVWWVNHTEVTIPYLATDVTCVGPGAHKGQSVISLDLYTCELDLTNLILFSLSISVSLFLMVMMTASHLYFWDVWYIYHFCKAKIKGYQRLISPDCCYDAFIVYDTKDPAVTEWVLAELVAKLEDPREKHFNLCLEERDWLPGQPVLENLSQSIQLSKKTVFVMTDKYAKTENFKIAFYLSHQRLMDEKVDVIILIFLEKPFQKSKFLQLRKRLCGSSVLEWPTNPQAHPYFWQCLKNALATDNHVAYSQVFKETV

Chain of human TLR5 expressed on HEK293 cells (human) (O60602 21-858): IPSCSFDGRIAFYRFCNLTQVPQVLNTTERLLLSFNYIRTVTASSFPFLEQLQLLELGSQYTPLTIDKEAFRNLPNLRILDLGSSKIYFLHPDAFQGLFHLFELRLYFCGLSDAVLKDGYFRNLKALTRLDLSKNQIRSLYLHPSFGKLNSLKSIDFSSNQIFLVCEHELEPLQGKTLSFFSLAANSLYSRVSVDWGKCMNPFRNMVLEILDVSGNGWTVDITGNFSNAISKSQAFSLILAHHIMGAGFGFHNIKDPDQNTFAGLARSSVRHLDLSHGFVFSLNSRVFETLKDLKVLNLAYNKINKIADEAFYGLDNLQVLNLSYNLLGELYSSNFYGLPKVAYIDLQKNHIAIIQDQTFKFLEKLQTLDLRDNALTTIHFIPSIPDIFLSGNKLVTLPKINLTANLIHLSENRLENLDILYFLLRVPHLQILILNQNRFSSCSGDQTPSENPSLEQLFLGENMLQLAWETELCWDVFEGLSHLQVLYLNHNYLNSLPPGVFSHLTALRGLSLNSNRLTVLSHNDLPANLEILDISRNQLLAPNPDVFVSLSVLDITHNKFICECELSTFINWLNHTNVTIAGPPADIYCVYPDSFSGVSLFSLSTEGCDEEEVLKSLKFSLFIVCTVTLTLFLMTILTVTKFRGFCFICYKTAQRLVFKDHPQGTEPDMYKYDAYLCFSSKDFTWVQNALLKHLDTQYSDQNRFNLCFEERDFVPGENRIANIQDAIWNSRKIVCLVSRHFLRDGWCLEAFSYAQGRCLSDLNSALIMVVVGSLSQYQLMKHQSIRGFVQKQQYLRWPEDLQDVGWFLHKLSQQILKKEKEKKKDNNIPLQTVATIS

B1: truncated YscF (protein)
chain: LKKPADDANKAVNDSIAALKDKPDNPALLADLQHSINKWSVIYNINSTIVRSMKDLMQGILQKFP
[1]
  SEAP reporter expression in HEK293 cells, screening 1: 0.15
  SEAP reporter expression in HEK293 cells, screening 2: 0.154
[2]
  SEAP reporter expression in HEK293 cells, screening 1: 0.097
  SEAP reporter expression in HEK293 cells, screening 2: 0.101
[3]
  SEAP reporter expression in HEK293 cells, screening 1: 0.079
  SEAP reporter expression in HEK293 cells, screening 2: 0.079
[4]
  SEAP reporter expression in HEK293 cells, screening 1: 2.02
  SEAP reporter expression in HEK293 cells, screening 2: 1.98
[5]
  SEAP reporter expression in HEK293 cells, screening 1: 0.099
  SEAP reporter expression in HEK293 cells, screening 2: 0.105
[6]
  SEAP reporter expression in HEK293 cells, screening 1: 2
  SEAP reporter expression in HEK293 cells, screening 2: 1.9
[7]
  SEAP reporter expression in HEK293 cells, screening 1: 0.091
  SEAP reporter expression in HEK293 cells, screening 2: 0.097
